This is an account of results in US20250320281A1.

Common to all, as to assay: cell-based or functional assay
The target of experiment [1] is HIV-1 92BR020 envelope glycoprotein (Env) on pseudovirus (HIV-1).
Experiment [2] addresses HIV-1 93UG077 envelope glycoprotein (Env) on pseudovirus (HIV-1).
Experiment [3] deals with HIV-1 94UG114 envelope glycoprotein (Env) on pseudovirus (HIV-1 (isolate 94UG114, clade D)).
Experiment [4] concerns the target HIV-1 Env of isolate 97ZA012 (clade C) (HIV-1 isolate 97ZA012).
Experiment [5] deals with HIV-1 Env of isolate MGRM-Chronic-B-004, clade B, on pseudovirus (HIV-1).
Experiment [6] deals with HIV-1 Env of pseudovirus MGRM-AG-005 (clade CRF_AG) (HIV-1).
Experiment [7] addresses HIV-1 Env of pseudovirus MGRM-Chronic-B-020 (HIV-1).
Experiment [8] deals with HIV-1 Env of pseudovirus MGRM-Chronic-B-024 (HIV-1).
Experiment [9] deals with HIV-1 Env of pseudovirus MGRM-G-004 (clade G) (HIV-1).
In experiment [10] the target is HIV-1 Env of pseudovirus MGRM-G-017 (HIV-1, clade G isolate MGRM-G-017).
Experiment [11] has as its target HIV-1 Env of pseudovirus MGRM-G-019 (HIV-1, clade G isolate MGRM-G-019).
In experiment [12] the target is HIV-1 JRCSF envelope glycoprotein (Env) on pseudovirus (HIV-1) (UniProt P20871).
Experiment [13] concerns the target HIV-1 envelope glycoprotein (Env) of isolate MGRM-A-002, clade A (HIV-1).
Experiment [14] addresses HIV-1 envelope glycoprotein (Env) of isolate MGRM-A-009, clade A (HIV-1).
In experiment [15] the target is HIV-1 envelope glycoprotein (Env) of isolate MGRM-A-012, clade A (HIV-1).
Experiment [16] addresses HIV-1 envelope glycoprotein (Env) of isolate MGRM-A-013, clade A (HIV-1).
For experiment [17], the target named is HIV-1 93IN905 Env (pseudovirus, clade C) (HIV-1).
Experiment [18] has as its target HIV-1 93UG077 Env (pseudovirus) (HIV-1).
For experiment [19], the target named is HIV-1 93UG077 Env (pseudovirus, clade A) (HIV-1).
Experiment [20] addresses HIV-1 Env of isolate 93IN905 (subtype C pseudovirus) (HIV-1).
Experiment [21] addresses HIV-1 Env of isolate MGRM-AG-012 (HIV-1).
Experiment [22] concerns the target HIV-1 Env of isolate MGRM-Chronic-B-001 (subtype B pseudovirus) (HIV-1).
Experiment [23] addresses HIV-1 Env of isolate MGRM-Chronic-B-018 (subtype B pseudovirus) (HIV-1).
The target in experiment [24] is HIV-1 Env of isolate MGRM-D-013 (pseudovirus) (HIV-1).
In experiment [25] the target is HIV-1 Env of isolate MGRM-D-029 (pseudovirus) (HIV-1).
The target in experiment [26] is HIV-1 Env of isolate MGRM-F1-012 (pseudovirus) (HIV-1).
For experiment [27], the target named is HIV-1 Env of isolate MGRM-F1-016 (HIV-1).
Experiment [28] has as its target HIV-1 Env of isolate MGRM-F1-022 (HIV-1).
For experiment [29], the target named is HIV-1 Env of isolate PVO.4 (subtype B pseudovirus) (HIV-1).
Experiment [30] has as its target HIV-1 Env of isolate TRJ04551.58 (subtype B pseudovirus) (HIV-1).
For experiment [31], the target named is HIV-1 JRCSF Env (pseudovirus, clade B) (HIV-1) (UniProt P20871).
Experiment [32] deals with HIV-1 MGRM-C-026 Env (pseudovirus, clade C) (HIV-1).
In experiment [33] the target is HIV-1 MGRM-D-001 Env (pseudovirus) (HIV-1).

1443_C16 (PG16) (TCN-116) (antibody), sequence (VH): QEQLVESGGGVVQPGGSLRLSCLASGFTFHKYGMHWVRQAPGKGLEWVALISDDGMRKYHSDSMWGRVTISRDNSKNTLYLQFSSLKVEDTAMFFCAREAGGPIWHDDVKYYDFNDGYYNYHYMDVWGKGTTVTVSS
1443_C16 (PG16) (TCN-116) (antibody), sequence (VL): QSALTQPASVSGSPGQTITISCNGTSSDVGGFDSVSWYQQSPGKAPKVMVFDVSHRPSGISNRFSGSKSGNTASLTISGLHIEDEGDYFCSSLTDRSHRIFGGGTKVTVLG

1443_C16 (PG16) (TCN-116) (antibody): the IC50, pseudovirus neutralization is more than 50 µg/mL in experiment [1], more than 50 µg/mL in experiment [2] and less than 0.0025 µg/mL in experiment [12]. Further, the IC50 (µg/ml), pseudovirus neutralization was more than 50 µg/mL in experiment [3]; 2.55 µg/mL in experiment [4]; 0.01 µg/mL in [5]; more than 50 µg/mL in experiment [7]; 0.01 µg/mL in [8]; 0.02 µg/mL in experiment [10]. Besides, the IC50 (µg/ml), pseudovirus neutralization in [11] was 1.21 µg/mL; in experiment [13], 0.004 µg/mL; in [14] it was 0.01 µg/mL; in experiment [15] it was 20.7 µg/mL; in experiment [16], 0.09 µg/mL. For the same substance, the IC50 in experiment [6] and in [9] was more than 50 µg/mL each time. The IC90 (pseudovirus neutralization) in experiment [12] was 0.013 µg/mL.

Turning to 2G12 (antibody), the IC50, pseudovirus neutralization is 2.26 µg/mL in [1], more than 50 µg/mL in [2] and 0.66 µg/mL in experiment [12]. The IC50 (µg/ml), pseudovirus neutralization was 13.9 µg/mL in experiment [3]; more than 50 µg/mL in experiment [4]; 8.65 µg/mL in experiment [5]; 0.2 µg/mL in experiment [7]; more than 50 µg/mL in experiment [8]; more than 50 µg/mL in experiment [10]. Also, the IC50 (µg/ml), pseudovirus neutralization in experiment [11] is 31 µg/mL; in experiment [13], more than 50 µg/mL; in experiment [14], 7.47 µg/mL; in experiment [15], more than 50 µg/mL; in experiment [16], more than 50 µg/mL. Moreover, the IC50 in [6] and in experiment [9] was more than 50 µg/mL each time. Besides, the IC90 (pseudovirus neutralization) in [12] is 5.38 µg/mL.

For 4858_P08 (PGT-123) (antibody), the neutralization IC50 is 0.013 µg/mL in experiment [1], 0.0303 µg/mL in [2] and 0.0423 µg/mL in experiment [12]. For the same substance, the values for the neutralization IC80 in experiment [1], in [2] and in experiment [12] were 0.039 µg/mL, 0.143 µg/mL and 0.143 µg/mL, respectively. The neutralization IC90 in experiment [1] was determined as 0.0741 µg/mL; in experiment [2], 0.35 µg/mL; in experiment [12], 0.289 µg/mL. Also, the neutralization IC95 in experiment [1] turned out to be 0.134 µg/mL; in [2], 0.78 µg/mL; in [12] it was 0.547 µg/mL. In addition, the IC50 neutralization worked out at 0.0071 µg/mL in [17], 0.0303 µg/mL in experiment [19], 0.0423 µg/mL in experiment [31] and 0.0031 µg/mL in experiment [32]. For the same substance, the results for the neutralization IC50 (pseudovirus) in experiment [18] and in [33] were 0.0303 µg/mL and 0.215 µg/mL, respectively. The IC50 (µg/mL), pseudovirus neutralization in experiment [20] is 0.004 µg/mL; in experiment [22], 0.15 µg/mL; in experiment [23], more than 50 µg/mL; in experiment [27] it was 4.95 µg/mL; in [28], 0.075 µg/mL; in experiment [29], 0.105 µg/mL. For the same substance, the IC50 (µg/mL), pseudovirus neutralization in experiment [30] is 16.9 µg/mL. Further, in experiment [21], the IC50 (as a rule, the point on the concentration scale where inhibition reaches its midpoint) was more than 50 µg/mL. Besides, the figures for the IC50, pseudovirus neutralization in [24], in experiment [25] and in [26] were more than 50 µg/mL, more than 50 µg/mL and 22.2 µg/mL, respectively.

With 5145_B14 (PGT-127) (antibody), the IC50 (µg/mL), pseudovirus neutralization in experiment [20] was 0.024 µg/mL; in experiment [22] it was more than 50 µg/mL; in experiment [23], 1.9 µg/mL; in [27] it was more than 50 µg/mL; in experiment [28], more than 50 µg/mL; in experiment [29] it was 0.164 µg/mL. For the same substance, the IC50 (µg/mL), pseudovirus neutralization in experiment [30] is 0.063 µg/mL. Also, in experiment [21], the IC50 is more than 50 µg/mL. Further, the IC50, pseudovirus neutralization in experiment [24], in [25] and in experiment [26] was more than 50 µg/mL each time.

On to 5123_A06 (PGT-125) (antibody), for which the IC50 neutralization in [17] came to 0.0137 µg/mL; in experiment [19] it was 0.0262 µg/mL; in [31], 0.006 µg/mL; in experiment [32] it was 0.0106 µg/mL. Further, the neutralization IC50 (pseudovirus) in experiment [18] was 0.0262 µg/mL; in [33], 2.31 µg/mL. Besides, the IC50 (µg/mL), pseudovirus neutralization is 0.009 µg/mL in experiment [20]; more than 50 µg/mL in [22]; more than 50 µg/mL in [23]; more than 50 µg/mL in [27]; more than 50 µg/mL in experiment [28]; 0.042 µg/mL in [29]. Also, in experiment [30], the IC50 (µg/mL), pseudovirus neutralization was 0.019 µg/mL. In addition, in [21], the half-maximal inhibitory concentration (IC50) is more than 50 µg/mL. In addition, the IC50, pseudovirus neutralization in experiment [24], in experiment [25] and in experiment [26] was more than 50 µg/mL throughout.

For 5141_B17 (PGT-126) (antibody), the IC50, pseudovirus neutralization in [1] is 0.0163 µg/mL; in experiment [2], 0.0256 µg/mL; in experiment [24], more than 50 µg/mL; in [25] it was more than 50 µg/mL; in experiment [26], 0.3 µg/mL. The IC80 (pseudovirus neutralization) worked out at 0.0457 µg/mL in [1], 0.102 µg/mL in [2] and 0.018 µg/mL in [12]. Further, the IC90 (pseudovirus neutralization) was determined as 0.0846 µg/mL in [1], 0.238 µg/mL in experiment [2] and 0.0339 µg/mL in experiment [12]. Moreover, the results for the IC95 (pseudovirus neutralization) in experiment [1], in experiment [2] and in [12] were 0.152 µg/mL, 0.577 µg/mL and 0.0608 µg/mL, respectively. Also, the IC50 neutralization in experiment [17] was 0.0194 µg/mL; in experiment [19], 0.0256 µg/mL; in experiment [31], 0.0061 µg/mL; in experiment [32], 0.0076 µg/mL. Moreover, the neutralization IC50 (pseudovirus) amounted to 0.0256 µg/mL in experiment [18] and 0.0639 µg/mL in experiment [33]. Also, the IC50 (µg/mL), pseudovirus neutralization in experiment [20] was 0.015 µg/mL; in experiment [22], more than 50 µg/mL; in experiment [23] it was 0.052 µg/mL; in experiment [27], more than 50 µg/mL; in experiment [28], more than 50 µg/mL; in experiment [29] it was 0.017 µg/mL. The substance also registered an IC50 (µg/mL), pseudovirus neutralization in experiment [30] of 0.025 µg/mL. This substance also had an IC50 in experiment [21] of more than 50 µg/mL.

On to 4838_L06 (PGT-121) (antibody), for which the IC50 (µg/mL), pseudovirus neutralization was 0.005 µg/mL in experiment [20]; 0.102 µg/mL in experiment [22]; more than 50 µg/mL in experiment [23]; 0.931 µg/mL in experiment [27]; 0.104 µg/mL in [28]; 0.137 µg/mL in experiment [29]. In addition, the IC50 (µg/mL), pseudovirus neutralization in experiment [30] was determined as 7.09 µg/mL. In addition, in [21], the IC50 is more than 50 µg/mL. Further, the results for the IC50, pseudovirus neutralization in experiment [24], in [25] and in [26] were more than 50 µg/mL, more than 50 µg/mL and 1.91 µg/mL, respectively.

In the case of 4877_D15 (PGT-122) (antibody), the IC50 neutralization was 0.0138 µg/mL in experiment [17], 0.191 µg/mL in [19], 0.0727 µg/mL in experiment [31] and 0.0089 µg/mL in experiment [32]. Besides, the values for the neutralization IC50 (pseudovirus) in experiment [18] and in experiment [33] were 0.191 µg/mL and 0.867 µg/mL, respectively. Besides, the IC50 (µg/mL), pseudovirus neutralization in experiment [20] was 0.013 µg/mL; in experiment [22], 0.138 µg/mL; in experiment [23], more than 50 µg/mL; in experiment [27], 4.81 µg/mL; in experiment [28], 0.277 µg/mL; in experiment [29] it was 0.689 µg/mL. In experiment [30], this substance had an IC50 (µg/mL), pseudovirus neutralization of more than 50 µg/mL. Further, the IC50 in experiment [21] is more than 50 µg/mL. The IC50, pseudovirus neutralization in experiment [24], in experiment [25] and in experiment [26] was more than 50 µg/mL each time.
